Reference: the supplement of paper PMC9233669
This sample holds only a part of the variants without activity.

Key:
biotinyl-Trp-oxazolone = test: self-aminoacylation, catalytic enhancement (BWO) (fold over background); higher = more active; k-Seq, kA / k0A0; sequences stand for … in GGGAAUGGAUCCACAUCUACGAAUUC…UUCACUGCAGACUUGACGAAGCUG
How it was run: (§1)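 Each biotinyl-aminoacyl-oxazolone, at 2–1250 μM, was incubated with mutagenized RNA pools (0.43 μM) carrying a 21-nt variable region. The 50 μL reactions contained HEPES/NaCl/KCl/MgCl2/CaCl2 buffer with 5% acetonitrile at pH 6.9–7.0 and ran for 90 minutes at room temperature. After streptavidin capture, RNA was measured by qPCR in triplicate and by Illumina sequencing, and catalytic enhancement was calculated as median kA over the uncatalyzed rate from a pseudo-first-order fit of per-sequence fraction reacted.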

biotinyl-Phe-oxazolone = test: self-aminoacylation, catalytic enhancement (BFO) (fold over background); higher = more active; k-Seq, kA / k0A0; sequences stand for … in GGGAAUGGAUCCACAUCUACGAAUUC…UUCACUGCAGACUUGACGAAGCUG
How it was run: as §1

biotinyl-Met-oxazolone = test: self-aminoacylation, catalytic enhancement (BMO) (fold over background); higher = more active; k-Seq, kA / k0A0; sequences stand for … in GGGAAUGGAUCCACAUCUACGAAUUC…UUCACUGCAGACUUGACGAAGCUG
How it was run: as §1

biotinyl-Leu-oxazolone = test: self-aminoacylation, catalytic enhancement (BLO) (fold over background); higher = more active; k-Seq, kA / k0A0; sequences stand for … in GGGAAUGGAUCCACAUCUACGAAUUC…UUCACUGCAGACUUGACGAAGCUG
How it was run: as §1

AACUUUGCUAAUAGUAGCAAG [Fam3.1 aminoacylation ribozyme variant]
self-aminoacylation (biotinyl-Trp-oxazolone): 2.42
self-aminoacylation (biotinyl-Phe-oxazolone): 2.06
self-aminoacylation (biotinyl-Met-oxazolone): 2.2

AAGCUGGCUAAUAGUCGCAAG [Fam3.1 aminoacylation ribozyme variant]
self-aminoacylation (biotinyl-Trp-oxazolone): 2.08
self-aminoacylation (biotinyl-Phe-oxazolone): 3.61
self-aminoacylation (biotinyl-Leu-oxazolone): 2.68

AAGCUUGCUAAUAGUCGCAUG [Fam3.1 aminoacylation ribozyme variant]
self-aminoacylation (biotinyl-Phe-oxazolone): 3.98
self-aminoacylation (biotinyl-Leu-oxazolone): 2.07

AAGCUUGCUAUUAGUCGCAAG [Fam3.1 aminoacylation ribozyme variant]
self-aminoacylation (biotinyl-Phe-oxazolone): 2.62
self-aminoacylation (biotinyl-Met-oxazolone): 2.23
self-aminoacylation (biotinyl-Leu-oxazolone): 2.48

AAGUCUGCUAAUAGUCGUAAG [Fam3.1 aminoacylation ribozyme variant]
self-aminoacylation (biotinyl-Trp-oxazolone): 9.94
self-aminoacylation (biotinyl-Phe-oxazolone): 49.6
self-aminoacylation (biotinyl-Met-oxazolone): 2.5

AAGUUAGCUAAUAGUCGCGAG [Fam3.1 aminoacylation ribozyme variant]
self-aminoacylation (biotinyl-Trp-oxazolone): 2.24
self-aminoacylation (biotinyl-Phe-oxazolone): 2.29
self-aminoacylation (biotinyl-Leu-oxazolone): 2.09

AAGUUCGCUAAUAGUCGCAAC [Fam3.1 aminoacylation ribozyme variant]
self-aminoacylation (biotinyl-Trp-oxazolone): 2.33
self-aminoacylation (biotinyl-Phe-oxazolone): 2.12
self-aminoacylation (biotinyl-Met-oxazolone): 2.32

ACACACUUCAAGCCAUCGGUC [Fam1B.1 aminoacylation ribozyme variant]
self-aminoacylation (biotinyl-Phe-oxazolone): 2.41
self-aminoacylation (biotinyl-Leu-oxazolone): 2.11

ACACGCUUCAAGCAAUCGGUC [Fam1B.1 aminoacylation ribozyme variant]
self-aminoacylation (biotinyl-Trp-oxazolone): 38.8
self-aminoacylation (biotinyl-Phe-oxazolone): 63.7
self-aminoacylation (biotinyl-Leu-oxazolone): 2.68

ACUCACCUAGGUCAUCGGGUC [Fam2.2 aminoacylation ribozyme variant]
self-aminoacylation (biotinyl-Phe-oxazolone): 7.01
self-aminoacylation (biotinyl-Met-oxazolone): 2.24

AGGGUUGCUAAUAGUCGCAAG [Fam3.1 aminoacylation ribozyme variant]
self-aminoacylation (biotinyl-Phe-oxazolone): 4.28
self-aminoacylation (biotinyl-Met-oxazolone): 2.18

AGUCACCUAGGUCAUCUGGUG [Fam2.2 aminoacylation ribozyme variant]
self-aminoacylation (biotinyl-Trp-oxazolone): 2.38
self-aminoacylation (biotinyl-Phe-oxazolone): 15.2
self-aminoacylation (biotinyl-Met-oxazolone): 2.31
self-aminoacylation (biotinyl-Leu-oxazolone): 2.59

AUAACCCUGGUCAUCGAGUAA [Fam2.1 aminoacylation ribozyme variant]
self-aminoacylation (biotinyl-Trp-oxazolone): 2.47
self-aminoacylation (biotinyl-Phe-oxazolone): 7.47
self-aminoacylation (biotinyl-Met-oxazolone): 3.64
self-aminoacylation (biotinyl-Leu-oxazolone): 3.46

AUACACCUAGGUCAACGGGUG [Fam2.2 aminoacylation ribozyme variant]
self-aminoacylation (biotinyl-Trp-oxazolone): 2.02
self-aminoacylation (biotinyl-Phe-oxazolone): 6.06
self-aminoacylation (biotinyl-Met-oxazolone): 2.09
self-aminoacylation (biotinyl-Leu-oxazolone): 2.79

AUACACCUAGGUCGUCGGGUG [Fam2.2 aminoacylation ribozyme variant]
self-aminoacylation (biotinyl-Phe-oxazolone): 6.55
self-aminoacylation (biotinyl-Leu-oxazolone): 2.55

AUGACCCUGGUCAUCGAGGGA [Fam2.1 aminoacylation ribozyme variant]
self-aminoacylation (biotinyl-Phe-oxazolone): 2.82
self-aminoacylation (biotinyl-Met-oxazolone): 3.65
self-aminoacylation (biotinyl-Leu-oxazolone): 3.03

AUUAACCUAGGUCAUCUGGUG [Fam2.2 aminoacylation ribozyme variant]
self-aminoacylation (biotinyl-Trp-oxazolone): 2.7
self-aminoacylation (biotinyl-Phe-oxazolone): 13.6
self-aminoacylation (biotinyl-Met-oxazolone): 2.59
self-aminoacylation (biotinyl-Leu-oxazolone): 3.34

AUUACCCAGGCCAUCGAGUGA [Fam2.1 aminoacylation ribozyme variant]
self-aminoacylation (biotinyl-Phe-oxazolone): 11
self-aminoacylation (biotinyl-Met-oxazolone): 2.52
self-aminoacylation (biotinyl-Leu-oxazolone): 2.69

AUUACCCUGGUAAUCGUGUGA [Fam2.1 aminoacylation ribozyme variant]
self-aminoacylation (biotinyl-Trp-oxazolone): 4.1
self-aminoacylation (biotinyl-Phe-oxazolone): 22.2
self-aminoacylation (biotinyl-Met-oxazolone): 3.48
self-aminoacylation (biotinyl-Leu-oxazolone): 3.58

AUUACCCUGGUCAUUGAGUGG [Fam2.1 aminoacylation ribozyme variant]
self-aminoacylation (biotinyl-Trp-oxazolone): 3.09
self-aminoacylation (biotinyl-Phe-oxazolone): 2.08
self-aminoacylation (biotinyl-Met-oxazolone): 2.54
self-aminoacylation (biotinyl-Leu-oxazolone): 2.66

AUUACCCUGGUCCUCGUGUGA [Fam2.1 aminoacylation ribozyme variant]
self-aminoacylation (biotinyl-Trp-oxazolone): 2.73
self-aminoacylation (biotinyl-Phe-oxazolone): 14
self-aminoacylation (biotinyl-Met-oxazolone): 2.89
self-aminoacylation (biotinyl-Leu-oxazolone): 2.88

AUUACCCUGGUUAUCGAGUGU [Fam2.1 aminoacylation ribozyme variant]
self-aminoacylation (biotinyl-Trp-oxazolone): 3.92
self-aminoacylation (biotinyl-Phe-oxazolone): 3.12
self-aminoacylation (biotinyl-Met-oxazolone): 2.66
self-aminoacylation (biotinyl-Leu-oxazolone): 2.57

AUUCACAUAGGUCAUCGAGUG [Fam2.2 aminoacylation ribozyme variant]
self-aminoacylation (biotinyl-Trp-oxazolone): 2.2
self-aminoacylation (biotinyl-Phe-oxazolone): 3.08
self-aminoacylation (biotinyl-Leu-oxazolone): 2.69

AUUCACCGAGGUCAUCAGGUG [Fam2.2 aminoacylation ribozyme variant]
self-aminoacylation (biotinyl-Phe-oxazolone): 2.42
self-aminoacylation (biotinyl-Leu-oxazolone): 2.03

AUUCACCUAAGUCAUCGGGUU [Fam2.2 aminoacylation ribozyme variant]
self-aminoacylation (biotinyl-Phe-oxazolone): 10.7
self-aminoacylation (biotinyl-Met-oxazolone): 2.63
self-aminoacylation (biotinyl-Leu-oxazolone): 2.55

AUUCACCUACGUCGUCGGGUG [Fam2.2 aminoacylation ribozyme variant]
self-aminoacylation (biotinyl-Phe-oxazolone): 11.5
self-aminoacylation (biotinyl-Leu-oxazolone): 2.38

AUUCACCUAGCUCAUCGGGGG [Fam2.2 aminoacylation ribozyme variant]
self-aminoacylation (biotinyl-Met-oxazolone): 2.42

AUUCACCUAGCUCCUCGGGUG [Fam2.2 aminoacylation ribozyme variant]
self-aminoacylation (biotinyl-Phe-oxazolone): 5.19
self-aminoacylation (biotinyl-Leu-oxazolone): 2.24

AUUCACCUAGGUCAGCGGUUG [Fam2.2 aminoacylation ribozyme variant]
self-aminoacylation (biotinyl-Phe-oxazolone): 6.39
self-aminoacylation (biotinyl-Met-oxazolone): 2.22

AUUCACCUAGGUCAGCGUGUG [Fam2.2 aminoacylation ribozyme variant]
self-aminoacylation (biotinyl-Phe-oxazolone): 11
self-aminoacylation (biotinyl-Met-oxazolone): 2.16
self-aminoacylation (biotinyl-Leu-oxazolone): 2.77

AUUCACCUAGGUCUUCAGGUG [Fam2.2 aminoacylation ribozyme variant]
self-aminoacylation (biotinyl-Phe-oxazolone): 6.96
self-aminoacylation (biotinyl-Met-oxazolone): 2.04
self-aminoacylation (biotinyl-Leu-oxazolone): 2.02

AUUCACCUGGGUCAUAGGGUG [Fam2.2 aminoacylation ribozyme variant]
self-aminoacylation (biotinyl-Phe-oxazolone): 6.22
self-aminoacylation (biotinyl-Leu-oxazolone): 2.23

CAACGCUUCAAGCAAUCGGUC [Fam1B.1 aminoacylation ribozyme variant]
self-aminoacylation (biotinyl-Trp-oxazolone): 33.7
self-aminoacylation (biotinyl-Phe-oxazolone): 58.6
self-aminoacylation (biotinyl-Leu-oxazolone): 2.08

CCACUUCAAACAAUCGGUCGG [Fam1A.1 aminoacylation ribozyme variant]
self-aminoacylation (biotinyl-Trp-oxazolone): 33.2
self-aminoacylation (biotinyl-Phe-oxazolone): 99.5
self-aminoacylation (biotinyl-Leu-oxazolone): 2.54

CCAGACUUCAAACAAUCGGUC [Fam1B.1 aminoacylation ribozyme variant]
self-aminoacylation (biotinyl-Trp-oxazolone): 40.2
self-aminoacylation (biotinyl-Phe-oxazolone): 85.8
self-aminoacylation (biotinyl-Leu-oxazolone): 2.19

CCCCACUUCAAGUAAUCGGUC [Fam1B.1 aminoacylation ribozyme variant]
self-aminoacylation (biotinyl-Trp-oxazolone): 14.2
self-aminoacylation (biotinyl-Phe-oxazolone): 15.4
self-aminoacylation (biotinyl-Leu-oxazolone): 2.08

CCGCACUUCAAGCAAUCGGUC [Fam1B.1 aminoacylation ribozyme variant]
self-aminoacylation (biotinyl-Trp-oxazolone): 36.5
self-aminoacylation (biotinyl-Phe-oxazolone): 61.6
self-aminoacylation (biotinyl-Leu-oxazolone): 2.01

CGACACUUCACGCAAUCGGUC [Fam1B.1 aminoacylation ribozyme variant]
self-aminoacylation (biotinyl-Phe-oxazolone): 4.13
self-aminoacylation (biotinyl-Leu-oxazolone): 2.15

CGACUUCAAUCAAUCGGUCUG [Fam1A.1 aminoacylation ribozyme variant]
self-aminoacylation (biotinyl-Trp-oxazolone): 24.3
self-aminoacylation (biotinyl-Phe-oxazolone): 42.2
self-aminoacylation (biotinyl-Leu-oxazolone): 2.21

CGUCUUCAAACAAUCGGUCUG [Fam1A.1 aminoacylation ribozyme variant]
self-aminoacylation (biotinyl-Trp-oxazolone): 33.5
self-aminoacylation (biotinyl-Phe-oxazolone): 79
self-aminoacylation (biotinyl-Leu-oxazolone): 2.22

GAGUUUGCUAAUAGUCGCAGG [Fam3.1 aminoacylation ribozyme variant]
self-aminoacylation (biotinyl-Trp-oxazolone): 3.34
self-aminoacylation (biotinyl-Phe-oxazolone): 6.69
self-aminoacylation (biotinyl-Leu-oxazolone): 2.11

GUACUUCAAACAAUCGGUCGG [Fam1A.1 aminoacylation ribozyme variant]
self-aminoacylation (biotinyl-Trp-oxazolone): 15.8
self-aminoacylation (biotinyl-Phe-oxazolone): 37.8
self-aminoacylation (biotinyl-Leu-oxazolone): 2.3

GUACUUCAAUCAAUCGGUCUG [Fam1A.1 aminoacylation ribozyme variant]
self-aminoacylation (biotinyl-Trp-oxazolone): 19.4
self-aminoacylation (biotinyl-Phe-oxazolone): 21.9
self-aminoacylation (biotinyl-Leu-oxazolone): 2.06
